In patent publication US20090110632A1 (published 2009):

Biological target: T1, MUC1-GST fusion protein containing seven variable number tandem repeat (VNTR) region (UniProt P15941 166-305)
T1 construct: domain: seven variable number tandem, repeat (VNTR) region; Produced by the applicant; coated on the ELISA plate at 1 ug/ml; also called MUC1 antigen; antigen; not shown: GST fusion partner
Assay: ELISA, plate-coated MUC1-GST; EC50 against HMFG1 standard of the same assay
Procedure: 96-well plates (Nunc Maxisorp) were coated with 100 μl of MUC1 at 1 μg/ml in carbonate-bicarbonate buffer (Sigma C3041) overnight at 4° C. MUC1 antigen used here was produced by the applicant and is a MUC1-GST fusion protein containing seven variable number tandem, repeat (VNTR) region; VNTR is the antigen recognised by MUC1.
Plates were then washed with a wash solution of PBS (phosphate buffered saline), +0.05% Tween 20, and serial dilutions of HMFG1 samples (wildtype protein or mutant) in incubation buffer (200 ml of PBS +0.2 g BSA (bovine serum albumin)) applied to the wells and incubated at 37° C. for 1 hour.
Plates were again washed, and treated with detection antibody (1.0 μl HRP (horse radish peroxidase) anti-human IgG (BD Pharmingen, P# 555788, or Jackson P#209-035-056) +1 ml incubation buffer) at 37° C. for 30 min, washed with wash buffer, and developed with TMB (tetramethylbenzidine) reagent (100 μl TMB (Sigma, T8665) warmed to room temperature and 100 μl sulphuric acid was used to stop the reaction after approximately 6 minutes). The optical density of the plates was read at 450 nm on a Spectromax plate reader immediately after development.

T1 sequence (P15941 126-265): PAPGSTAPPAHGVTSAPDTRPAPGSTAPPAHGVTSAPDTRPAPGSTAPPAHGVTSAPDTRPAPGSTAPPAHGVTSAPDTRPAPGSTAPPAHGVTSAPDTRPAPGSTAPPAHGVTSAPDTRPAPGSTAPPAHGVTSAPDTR

Row | fold increased affinity compared to HMFG1 standard (from EC50) [fold] | Binder
1 | ~5 | N56A HMFG1 (antibody, human IgG1, kappa, V domains shown) VH: QVQLVQSGAEVKKPGASVKVSCKASGYTFSAYWIEWVRQAPGKGLEWVGEILPGSANSRYNEKFKGRVTVTRDTSTNTAYMELSSLRSEDTAVYYCARSYDFAWFAYWGQGTLVTVSS VL: DIQMTQSPSSLSASVGDRVTITCKSSQSLLYSSNQKIYLAWYQQKPGKAPKLLIYWASTRESGVPSRFSGSGSGTDFTFTISSLQPEDIATYYCQQYYRYPRTFGQGTKVEIKR
2 | ~10 | N56G HMFG1 (antibody, human IgG1, kappa, V domains shown, also called N56G mutant) VH: QVQLVQSGAEVKKPGASVKVSCKASGYTFSAYWIEWVRQAPGKGLEWVGEILPGSGNSRYNEKFKGRVTVTRDTSTNTAYMELSSLRSEDTAVYYCARSYDFAWFAYWGQGTLVTVSS VL: DIQMTQSPSSLSASVGDRVTITCKSSQSLLYSSNQKIYLAWYQQKPGKAPKLLIYWASTRESGVPSRFSGSGSGTDFTFTISSLQPEDIATYYCQQYYRYPRTFGQGTKVEIKR
3 | ~20 | N56C HMFG1 (antibody, human IgG1, kappa, V domains shown) VH: QVQLVQSGAEVKKPGASVKVSCKASGYTFSAYWIEWVRQAPGKGLEWVGEILPGSCNSRYNEKFKGRVTVTRDTSTNTAYMELSSLRSEDTAVYYCARSYDFAWFAYWGQGTLVTVSS VL: DIQMTQSPSSLSASVGDRVTITCKSSQSLLYSSNQKIYLAWYQQKPGKAPKLLIYWASTRESGVPSRFSGSGSGTDFTFTISSLQPEDIATYYCQQYYRYPRTFGQGTKVEIKR
